What was measured:
murine CD22 = biological target: T1, murine CD22 (murine, UniProt P35329 22-708); assay: not described (told as the reason for the choice of monkeys)
T1 sequence (looked up): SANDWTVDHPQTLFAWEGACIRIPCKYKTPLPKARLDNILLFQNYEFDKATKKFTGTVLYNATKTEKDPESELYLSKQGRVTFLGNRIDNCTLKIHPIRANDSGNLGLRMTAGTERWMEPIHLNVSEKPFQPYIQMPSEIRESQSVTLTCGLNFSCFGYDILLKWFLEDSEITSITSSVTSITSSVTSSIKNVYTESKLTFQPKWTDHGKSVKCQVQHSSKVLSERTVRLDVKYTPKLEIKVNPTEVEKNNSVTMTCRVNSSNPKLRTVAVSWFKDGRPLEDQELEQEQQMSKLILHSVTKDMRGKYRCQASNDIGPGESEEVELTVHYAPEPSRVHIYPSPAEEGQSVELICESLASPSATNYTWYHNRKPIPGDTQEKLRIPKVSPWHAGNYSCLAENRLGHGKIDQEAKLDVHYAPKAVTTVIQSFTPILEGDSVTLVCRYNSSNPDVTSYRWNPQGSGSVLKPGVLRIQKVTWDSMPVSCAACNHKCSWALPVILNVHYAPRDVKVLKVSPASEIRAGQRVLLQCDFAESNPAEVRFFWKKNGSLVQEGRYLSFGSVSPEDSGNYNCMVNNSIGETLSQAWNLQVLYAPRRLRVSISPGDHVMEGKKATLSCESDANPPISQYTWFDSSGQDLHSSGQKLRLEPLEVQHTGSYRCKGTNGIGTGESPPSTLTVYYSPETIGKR

[1] = biological target: T2, CD22 (human, on CA46, Daudi and other human B-cell lines and on fresh patient leukemia cells) (human, UniProt P20273 20-847); assay: competition of unlabelled IgG against 125I-labelled RFB4 IgG on CA46 cells, 4 C, gamma counting
T2 construct: whole, on cells; also called CD22 antigen
T2 sequence (looked up): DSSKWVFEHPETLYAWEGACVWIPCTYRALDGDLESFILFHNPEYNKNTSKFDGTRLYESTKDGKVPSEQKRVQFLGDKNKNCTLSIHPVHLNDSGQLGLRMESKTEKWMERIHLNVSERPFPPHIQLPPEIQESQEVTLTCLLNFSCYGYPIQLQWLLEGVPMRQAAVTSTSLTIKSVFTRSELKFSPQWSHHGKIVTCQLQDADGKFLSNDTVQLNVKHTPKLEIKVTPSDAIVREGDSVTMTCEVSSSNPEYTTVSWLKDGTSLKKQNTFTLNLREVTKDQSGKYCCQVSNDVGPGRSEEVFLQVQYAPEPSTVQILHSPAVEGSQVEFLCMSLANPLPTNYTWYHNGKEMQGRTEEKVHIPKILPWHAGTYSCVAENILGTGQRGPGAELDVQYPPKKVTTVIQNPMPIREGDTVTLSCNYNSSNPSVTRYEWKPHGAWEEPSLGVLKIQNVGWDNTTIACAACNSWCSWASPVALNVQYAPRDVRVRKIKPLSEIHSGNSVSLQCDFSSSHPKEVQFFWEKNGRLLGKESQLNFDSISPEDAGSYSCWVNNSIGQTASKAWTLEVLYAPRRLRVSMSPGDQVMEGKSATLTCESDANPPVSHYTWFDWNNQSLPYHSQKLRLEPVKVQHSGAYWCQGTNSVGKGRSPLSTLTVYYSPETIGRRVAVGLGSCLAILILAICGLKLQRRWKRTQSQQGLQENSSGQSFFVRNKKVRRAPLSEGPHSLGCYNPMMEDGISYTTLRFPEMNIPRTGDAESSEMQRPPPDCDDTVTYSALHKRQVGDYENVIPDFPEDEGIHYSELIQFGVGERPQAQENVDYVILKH

[2] = biological target: T2, CD22 (human, on CA46, Daudi and other …); assay: competition of unlabelled IgG against 125I-labelled RFB4 IgG on Daudi cells, 4 C, gamma counting

B1: RFB4 IgG (antibody, V domains shown)
VH: EVQLVESGGGLVKPGGSLKLSCAASGFAFSIYDMSWVRQTPEKRLEWVAYISSGGGTTYYPDTVKGRFTISRDNAKNTLYLQMSSLKSEDTAMYYCARHSGYGSSYGVLFAYWGQGTLVTVSA
VL: DIQMTQTTSSLSASLGDRVTISCRASQDISNYLNWYQQKPDGTVKLLIYYTSILHSGVPSRFSGSGSGTDYSLTISNLEQEDFATYFCQQGNTLPWTFGGGTKLEIK
notes: also called RFB4 mAb; native RFB4 IgG
Murine CD22
  binding result: no binding
[1]
  IC50: 4.5 nM
[2]
  IC50: 10 nM
